Reference: patent publication US20240270846A1 (published 2024)
Numbering of substitutions follows the chain as printed. Names and notes keep the numbering of the source.

B1: CE115HA000/GLS3000 N53D one-arm antibody (antibody, human IgG1, kappa, L234A L235A, N297A, name in Kabat numbering)
heavy: QVQLVESGGGVVQPGRSLRLSCAASGFTFSNAWMHWVRQAPGKGLEWVAQIKAKSNNYATYYAESVKGRFTISRDDSKNSLYLQMNSLKTEDTAVYYCRYVHYGAYYGVDAWGQGTTVTVSSASTKGPSVFPLAPSSKSTSGGTAALGCLVKDYFPEPVTVSWNSGALTSGVHTFPAVLQSSGLYSLSSVVTVPSSSLGTQTYICNVNHKPSNTKVDKKVEPKSCDKTHTCPPCPAPEAAGGPSVFLFPPKPKDTLMISRTPEVTCVVVDVSHEDPEVKFNWYVDGVEVHNAKTKPREEQYASTYRVVSVLTVLHQDWLNGKEYKCKVSNKALPAPIEKTISKAKGQPREPQVYTLPPSRCELTKNQVSLSCAVKGFYPSDIAVEWESNGQPENNYKTTPPVLDSDGSFFLVSKLTVDKSRWQQGNVFSCSVMHEALHNHYTQKSLSLSPDYKDDDDK
chain: EPKSSDKTHTCPPCPAPELLGGPSVFLFPPKPKDTLMISRTPEVTCVVVDVSHEDPEVKFNWYVDGVEVHNAKTKPREEQYNSTYRVVSVLTVLHQDWLNGKEYKCKVSNKALPAPIEKTISKAKGQPREPQVCTLPPSRDELTKNQVSLWCLVKGFYPSDIAVEWESNGQPENNYKTTPPVLDSDGSFFLYSKLTVDKSRWQQGNVFSCSVMHEALHNRYTQKSLSLSP
light: DIVMTQSPLSLPVTPGEPASISCRSSQSLVHSNRNTYLHWYQQKPGQAPRLLIYKVSDRFSGVPDRFSGSGSGTDFTLKISRVEAEDVGVYYCGQGTQVPYTFGQGTKLEIKRTVAAPSVFIFPPSDEQLKSGTASVVCLLNNFYPREAKVQWKVDNALQSGNSQESVTEQDSKDSTYSLSSTLTLSKADYEKHKVYACEVTHQGLSSPVTKSFNRGEC
notes: one-arm IgG1
B2: CE115HA000/GLS3000 F55W one-arm antibody (antibody, human IgG1, kappa, L234A L235A, N297A, name in Kabat numbering)
heavy: B1 heavy
chain: B1 chain
light: B1 light with D58N, F60W
notes: one-arm IgG1
B3: CE115HA000/GLS3000 G89F one-arm antibody (antibody, human IgG1, kappa, L234A L235A, N297A, name in Kabat numbering)
heavy: B1 heavy
chain: B1 chain
light: B1 light with D58N, G94F
notes: one-arm IgG1
B4: CE115HA000/GLS3000 G89A one-arm antibody (antibody, human IgG1, kappa, L234A L235A, N297A, name in Kabat numbering)
heavy: B1 heavy
chain: B1 chain
light: B1 light with D58N, G94A
notes: one-arm IgG1
B5: CE115HA000/GLS3000 F55L one-arm antibody (antibody, human IgG1, kappa, L234A L235A, N297A, name in Kabat numbering)
heavy: B1 heavy
chain: B1 chain
light: B1 light with D58N, F60L
notes: one-arm IgG1
B6: CE115HA000/GLS3000 F55S one-arm antibody (antibody, human IgG1, kappa, L234A L235A, N297A, name in Kabat numbering)
heavy: B1 heavy
chain: B1 chain
light: B1 light with D58N, F60S
notes: one-arm IgG1
B7: CE115HA000/GLS3000 F55N one-arm antibody (antibody, human IgG1, kappa, L234A L235A, N297A, name in Kabat numbering)
heavy: B1 heavy
chain: B1 chain
light: B1 light with D58N, F60N
notes: one-arm IgG1
B8: CE115HA000/GLS3000 G89D one-arm antibody (antibody, human IgG1, kappa, L234A L235A, N297A, name in Kabat numbering)
heavy: B1 heavy
chain: B1 chain
light: B1 light with D58N, G94D
notes: one-arm IgG1
B9: CE115HA000/GLS3000 F55E one-arm antibody (antibody, human IgG1, kappa, L234A L235A, N297A, name in Kabat numbering)
heavy: B1 heavy
chain: B1 chain
light: B1 light with D58N, F60E
notes: one-arm IgG1
B10: CE115HA000/GLS3000 G89H one-arm antibody (antibody, human IgG1, kappa, L234A L235A, N297A, name in Kabat numbering)
heavy: B1 heavy
chain: B1 chain
light: B1 light with D58N, G94H
notes: one-arm IgG1
B11: CE115HA000/GLS3000 F55T one-arm antibody (antibody, human IgG1, kappa, L234A L235A, N297A, name in Kabat numbering)
heavy: B1 heavy
chain: B1 chain
light: B1 light with D58N, F60T
notes: one-arm IgG1
B12: CE115HA000/GLS3000 F55V one-arm antibody (antibody, human IgG1, kappa, L234A L235A, N297A, name in Kabat numbering)
heavy: B1 heavy
chain: B1 chain
light: B1 light with D58N, F60V
notes: one-arm IgG1
B13: CE115HA000/GLS3000 F55D one-arm antibody (antibody, human IgG1, kappa, L234A L235A, N297A, name in Kabat numbering)
heavy: B1 heavy
chain: B1 chain
light: B1 light with D58N, F60D
notes: one-arm IgG1
B14: CE115HA000/GLS3000 F55Y one-arm antibody (antibody, human IgG1, kappa, L234A L235A, N297A, name in Kabat numbering)
heavy: B1 heavy
chain: B1 chain
light: B1 light with D58N, F60Y
notes: one-arm IgG1
B15: CE115HA000/GLS3000 G89I one-arm antibody (antibody, human IgG1, kappa, L234A L235A, N297A, name in Kabat numbering)
heavy: B1 heavy
chain: B1 chain
light: B1 light with D58N, G94I
notes: one-arm IgG1
B16: CE115HA000/GLS3000 G89E one-arm antibody (antibody, human IgG1, kappa, L234A L235A, N297A, name in Kabat numbering)
heavy: B1 heavy
chain: B1 chain
light: B1 light with D58N, G94E
notes: one-arm IgG1
B17: CE115HA000/GLS3000 F55K one-arm antibody (antibody, human IgG1, kappa, L234A L235A, N297A, name in Kabat numbering)
heavy: B1 heavy
chain: B1 chain
light: B1 light with D58N, F60K
notes: one-arm IgG1
B18: CE115HA000/GLS3000 F55P one-arm antibody (antibody, human IgG1, kappa, L234A L235A, N297A, name in Kabat numbering)
heavy: B1 heavy
chain: B1 chain
light: B1 light with D58N, F60P
notes: one-arm IgG1
B19: CE115HA000/GLS3000 F55H one-arm antibody (antibody, human IgG1, kappa, L234A L235A, N297A, name in Kabat numbering)
heavy: B1 heavy
chain: B1 chain
light: B1 light with D58N, F60H
notes: one-arm IgG1
B20: CE115HA000/GLS3000 F55Q one-arm antibody (antibody, human IgG1, kappa, L234A L235A, N297A, name in Kabat numbering)
heavy: B1 heavy
chain: B1 chain
light: B1 light with D58N, F60Q
notes: one-arm IgG1
B21: CE115HA000/GLS3000 F55R one-arm antibody (antibody, human IgG1, kappa, L234A L235A, N297A, name in Kabat numbering)
heavy: B1 heavy
chain: B1 chain
light: B1 light with D58N, F60R
notes: one-arm IgG1
B22: CE115HA000/GLS3000 F55M one-arm antibody (antibody, human IgG1, kappa, L234A L235A, N297A, name in Kabat numbering)
heavy: B1 heavy
chain: B1 chain
light: B1 light with D58N, F60M
notes: one-arm IgG1
B23: CE115HA000/GLS3000 F55G one-arm antibody (antibody, human IgG1, kappa, L234A L235A, N297A, name in Kabat numbering)
heavy: B1 heavy
chain: B1 chain
light: B1 light with D58N, F60G
notes: one-arm IgG1
B24: CE115HA000/GLS3000 F55I one-arm antibody (antibody, human IgG1, kappa, L234A L235A, N297A, name in Kabat numbering)
heavy: B1 heavy
chain: B1 chain
light: B1 light with D58N, F60I
notes: one-arm IgG1

Biological target: T1, CD3 epsilon homodimer protein (UniProt P07766 23-126)
T1 construct: also called CD3 (CD3 epsilon)
Assay: SPR (Biacore T200), CD3e homodimer on CM4 chip, antibody as analyte; KD ratio vs unaltered GLS3000;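 further: CD3 epsilon homodimer amine-coupled to the sensor surface, antibodies injected as analyte at 25 °C with HBS-EP+ running buffer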
Method: An appropriate amount of CD3 epsilon homodimer protein was immobilized onto Sensor chip CM4 (GE Healthcare Japan Corp.) by the amine coupling method. Then, the antibody having an appropriate concentration was injected thereto as an analyte and allowed to interact with the CD3 epsilon homodimer protein on the sensor chip. Then, the sensor chip was regenerated by the injection of 10 mmol/L glycine-HCl (pH 1.5). The assay was conducted at 25 degrees C., and HBS-EP+(GE Healthcare Japan Corp.) was used as a running buffer. […] Each parameter was calculated using Biacore T200 Evaluation Software (GE Healthcare Japan Corp.).
Specifically, when the amount of the GLS3000-containing antibody bound was defined as X and the amount of the L chain one-amino acid altered form bound was defined as Y, a value of Z (ratio of amounts bound)=Y/X was used.

T1 sequence (P07766 23-126): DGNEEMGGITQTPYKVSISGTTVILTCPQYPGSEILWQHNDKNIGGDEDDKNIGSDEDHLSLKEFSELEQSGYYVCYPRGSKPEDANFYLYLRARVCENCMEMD

KD ratio to GLS3000	Binder
2.8 ratio	B1
1.72 ratio	B2
3.34 ratio	B3
1.1 ratio	B4
1.43 ratio	B5
1.15 ratio	B6
0.91 ratio	B7
1.96 ratio	B8
0.92 ratio	B9
1.44 ratio	B10
2.42 ratio	B11
1.12 ratio	B12
1.02 ratio	B13
1.13 ratio	B14
1.11 ratio	B15
34.6 ratio	B16
1.22 ratio	B17
1.15 ratio	B18
1.02 ratio	B19
1.09 ratio	B20
1.27 ratio	B21
1.29 ratio	B22
1.15 ratio	B23
1.28 ratio	B24
